In paper PMC2786168:

Key:
RNase R wild-type = target: T1, RNase R wild-type (Escherichia coli, UniProt P21499 1-813); assay: filter binding
T1 sequence: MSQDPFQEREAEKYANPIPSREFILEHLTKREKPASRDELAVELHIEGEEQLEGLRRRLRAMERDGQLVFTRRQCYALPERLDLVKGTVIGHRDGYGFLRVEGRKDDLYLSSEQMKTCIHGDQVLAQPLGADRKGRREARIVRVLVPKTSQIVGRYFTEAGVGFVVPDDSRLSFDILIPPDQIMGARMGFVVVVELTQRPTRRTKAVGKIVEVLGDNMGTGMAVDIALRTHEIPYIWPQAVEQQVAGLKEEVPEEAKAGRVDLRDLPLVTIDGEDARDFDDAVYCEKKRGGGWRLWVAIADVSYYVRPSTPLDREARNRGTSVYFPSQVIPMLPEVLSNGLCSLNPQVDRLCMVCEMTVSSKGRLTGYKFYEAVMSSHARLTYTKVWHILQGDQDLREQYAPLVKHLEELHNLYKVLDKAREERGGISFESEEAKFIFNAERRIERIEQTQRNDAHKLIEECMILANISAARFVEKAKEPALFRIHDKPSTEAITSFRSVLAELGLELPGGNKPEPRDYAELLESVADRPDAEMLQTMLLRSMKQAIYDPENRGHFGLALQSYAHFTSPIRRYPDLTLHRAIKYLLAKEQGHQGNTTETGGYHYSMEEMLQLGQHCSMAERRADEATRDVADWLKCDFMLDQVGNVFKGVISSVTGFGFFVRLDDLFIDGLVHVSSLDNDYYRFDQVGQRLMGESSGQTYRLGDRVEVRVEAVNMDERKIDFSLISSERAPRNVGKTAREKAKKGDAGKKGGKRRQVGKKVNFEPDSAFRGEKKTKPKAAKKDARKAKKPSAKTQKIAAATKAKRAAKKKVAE

RNase R R572K = target: T2, RNase R R572K (Escherichia coli, UniProt P21499 1-813, R572K); assay: filter binding
T2 sequence: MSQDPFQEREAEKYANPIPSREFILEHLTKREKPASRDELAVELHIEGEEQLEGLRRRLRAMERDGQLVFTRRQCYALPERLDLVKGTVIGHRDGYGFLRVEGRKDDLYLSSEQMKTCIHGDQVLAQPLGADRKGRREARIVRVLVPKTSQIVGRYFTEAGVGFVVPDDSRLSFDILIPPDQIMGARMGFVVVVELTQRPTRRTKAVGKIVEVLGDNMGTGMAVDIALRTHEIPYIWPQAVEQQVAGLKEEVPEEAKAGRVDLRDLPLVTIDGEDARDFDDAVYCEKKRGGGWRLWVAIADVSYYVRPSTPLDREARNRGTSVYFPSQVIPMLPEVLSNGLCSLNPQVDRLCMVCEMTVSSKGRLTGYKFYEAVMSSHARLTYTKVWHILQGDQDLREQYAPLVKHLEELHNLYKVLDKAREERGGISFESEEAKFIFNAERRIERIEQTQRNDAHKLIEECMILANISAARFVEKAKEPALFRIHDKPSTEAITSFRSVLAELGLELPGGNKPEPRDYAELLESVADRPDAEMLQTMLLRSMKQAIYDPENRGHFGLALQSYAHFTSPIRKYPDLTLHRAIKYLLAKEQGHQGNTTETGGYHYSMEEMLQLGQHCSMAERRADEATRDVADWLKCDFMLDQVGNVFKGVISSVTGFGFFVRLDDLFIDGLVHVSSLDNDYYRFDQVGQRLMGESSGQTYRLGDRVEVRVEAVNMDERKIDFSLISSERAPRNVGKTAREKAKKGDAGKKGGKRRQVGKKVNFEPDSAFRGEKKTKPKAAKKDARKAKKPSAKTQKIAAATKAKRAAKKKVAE

## AAAAAAAAAAAAAAAAA (ssRNA) [A17]
RNase R wild-type
  Kd: 0.8 ± 0.1 nM
RNase R R572K
  Kd: 0.5 ± 0.1 nM
